From the RNAGym collection of RNA variant scans (doi:10.1073/pnas.2313332121)

B1: TPR t1 (parent)
chain: GACCAAUCUGCCCUCAGAGCUCGAGAACAUCUUCGGAUGCAGAGGAGGCAGGCUUCGGUGGCGCGAUAGCGCCAACGUCCUCAACCUCCAAUGCAUCCCACCACAUGAUGAUGCCUGAAGAGCCUUGGUUUUUUG

Variants of: B1
Test: polymerase ribozyme fitness, log enrichment relative to wild type (log ratio); higher = more active; in vitro selection for triplet polymerase activity
Procedure, shortened: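 To select mutant libraries of each subunit of a heterodimeric triplet polymerase ribozyme, built by PCR and transcribed, each was annealed with a biotinylated primer, partner subunit and triplets, then incubated frozen at −7 °C. Extended constructs were gel-excised, captured on streptavidin beads and amplified by RT-PCR, in one round carried out in triplicate. Illumina sequencing of input and output libraries kept genotypes with ≥10 input reads and ≥1 read per output. Fitness is the base-2 logarithm of genotype enrichment relative to wild-type enrichment, from inverse-variance-weighted replicate averages.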

Variant | polymerase ribozyme fitness (log ratio)
G44A C49U C76G C88G | -3.44
G42U G45U C88G A90G | -1.09
G42A G69A | -5.77
A43U A46G C62G U106A | -5.98
A43G C49U U59G C114U | -2.13
G42C C56G C88G C114A | -5.36
A43C C62G G120A | -4.98
G44A A119U | -0.987
A43G G107A | -6.28
A43C G47U G69U | -1.43
G42A G60U C82U U112G G127C | -3.6
A43U U87A G110A | -4.16
A43G C56U C79G A111G | -5.35
G42U G93C U133A | -3.57
A43U U96A A121U | 0.867
A43U C123G G127C | -1.59
A43U G120A G127A U129C | -3.11
G42U G71A | -2.43
G42U U87C C123A U131C | -0.903
G42C G48U C70A G120U | -5.45
A43U C115U | -1.87

Variant | polymerase ribozyme fitness (log ratio)
G44C C62A G77A U133A | -4.24
G44A A50G C72A C73U G110A | -4.26
A43U C49U G61A G113C C123U | -3.66
A43U A50C G77A U126C | -3.5
A43C U55C U130G | -2.82
A43G C86U A91U C101U U131A | -1.79
G42U C49U G61A | -1.64
G42A C114U | -2.35
G42U U54G C76U A111G | -2.36
A43G C64U C82G C114U A119G U131A | -1.99
G42C C94A | -2.23
G44A G60C C124A | 0.703
G42C C88G | -3.51
G44A G60U G117C | -5.36
G42U G71A U92A | -3.78
A43G C72A C102U C114G | -4.55
G42A C56A U96G | -2.79
A43G A50U C62A A90G U131A | -5.99
A43C U112A G127C | -2.51
G44C C86G | -1.54
A43C G69C | -4.47

Variant | polymerase ribozyme fitness (log ratio)
G44A A111G | -0.69
A43U C104U | -0.812
G44A G113A | -2.35
G42A G71A | -3.35
G44C C53A C88U A100U | -0.527
G42U A74G C85A | -1.78
A43G C114U | -1.57
A43U C123A G128C | -2.79
A43C G60A | -2.3
G42A C73A C104U G128A | -3.49
A43G G110A | -3.34
G42C C53U G93A | -3.13
G42U C72G C94U G120U U131A | -2.67
G42A G44A G47U | -3.4
A43U G45C C49U G120A | -3.19
G42C A66U G120A | -2.6
G42C G127A | -2.97
A43G C70A | -4.41
A43U G48U G120U | -2.2
G44A G45C | -3.88
A43U G60A | -1.98

Variant | polymerase ribozyme fitness (log ratio)
G42C C56A G122A | -2.92
G42U G47U G60A U112A C114U G117C | -5.02
A43G A50U G71U | -5.61
G44A C72U G93U C97U U131A | -2.85
A43C C76U C98U G117U | -7.18
G42U G63C C76A G77U A90U G117C G127U G128C | -3.83
G42U G135U | -1.66
G42U C88A U92A G120A | -1.96
G42C C115U G120U U129G | -4.74
G42C C73G C79U A95G U129C | -3.37
G42A C49G | -1.71
G42C C56G C72G C88G C114A | -7.1
A43G C80U | -2.86
A43G U78A C88U U109G | -7.02
G44A G51A C104U C115G A121C C124A | -5.73
G42A C56G C85G G93A G120C | -3.01
A43U G63A A95G G122U | -4.37
G44A C49A C76A U106A | -3.36
G42A G47A | -2.34
G42A G45A A50G G113U U129A G135A | -3.94
G42C G45U G48U U131G | -3.09
